Data from patent US20240400654A1.
Several values for one entry are separate records, joined by “and”; a condition that tells them apart may be missing. Identical values can stand only once.

molecular target: HRgpA-6H (Porphyromonas gingivalis) (UniProt P28784); assay: ELISA, coated HRgpA-6H
Chain of UniProt P28784 (P28784 228-860 limits assumed): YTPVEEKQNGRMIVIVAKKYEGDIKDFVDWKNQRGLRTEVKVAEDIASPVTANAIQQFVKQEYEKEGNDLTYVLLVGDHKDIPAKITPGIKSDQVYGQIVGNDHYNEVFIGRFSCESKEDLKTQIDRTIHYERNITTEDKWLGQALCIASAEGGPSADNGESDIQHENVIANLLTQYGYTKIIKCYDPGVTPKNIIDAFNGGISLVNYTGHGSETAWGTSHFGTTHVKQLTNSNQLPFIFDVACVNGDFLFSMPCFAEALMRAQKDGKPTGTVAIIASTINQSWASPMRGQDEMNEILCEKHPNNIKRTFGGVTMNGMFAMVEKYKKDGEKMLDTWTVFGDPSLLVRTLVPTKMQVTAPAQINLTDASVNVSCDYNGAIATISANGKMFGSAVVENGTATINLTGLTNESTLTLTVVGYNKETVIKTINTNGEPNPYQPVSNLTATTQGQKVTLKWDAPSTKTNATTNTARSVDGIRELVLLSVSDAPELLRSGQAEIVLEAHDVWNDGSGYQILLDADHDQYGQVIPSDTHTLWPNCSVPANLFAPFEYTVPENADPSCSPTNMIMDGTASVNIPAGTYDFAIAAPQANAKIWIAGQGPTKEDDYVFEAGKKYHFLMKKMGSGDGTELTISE

Binder | OD450 nm | Ratio OD(Variant)/OD(WT)
KB001 mouse Fab VH S56P (Fab, V domains shown) VH: EVQLKQSGPGLVAPSQSLSITCTVSGFSLSIYSVHWVRQPPGKGLEWLGMIWGGGPSDYNSALKSRLSISKDNSKSQVFLKMNSLQTDDTAMYYCARNGNFYAMDYWGQGTSVTVSS VL: QIVLTQSPAIMSASLGERVTMTCTASSSVSSSFLHWYQQKPGSSPQLWIYSTSNLASGVPARFSGSGSGTSYSLTISSMEAEDAATYYCHQYHHSPYIYTFGGGTKLEIK | 0.855 and 0.788 and 0.824 | 0.972 and 0.896 and 0.937
KB001 mouse Fab VH S57R (Fab, V domains shown) VH: EVQLKQSGPGLVAPSQSLSITCTVSGFSLSIYSVHWVRQPPGKGLEWLGMIWGGGSRDYNSALKSRLSISKDNSKSQVFLKMNSLQTDDTAMYYCARNGNFYAMDYWGQGTSVTVSS VL: QIVLTQSPAIMSASLGERVTMTCTASSSVSSSFLHWYQQKPGSSPQLWIYSTSNLASGVPARFSGSGSGTSYSLTISSMEAEDAATYYCHQYHHSPYIYTFGGGTKLEIK | 0.796 | 0.905
KB001 mouse Fab VH S57H (Fab, V domains shown) VH: EVQLKQSGPGLVAPSQSLSITCTVSGFSLSIYSVHWVRQPPGKGLEWLGMIWGGGSHDYNSALKSRLSISKDNSKSQVFLKMNSLQTDDTAMYYCARNGNFYAMDYWGQGTSVTVSS VL: QIVLTQSPAIMSASLGERVTMTCTASSSVSSSFLHWYQQKPGSSPQLWIYSTSNLASGVPARFSGSGSGTSYSLTISSMEAEDAATYYCHQYHHSPYIYTFGGGTKLEIK | 0.8 | 0.91
KB001 mouse Fab VH S56L (Fab, V domains shown) VH: EVQLKQSGPGLVAPSQSLSITCTVSGFSLSIYSVHWVRQPPGKGLEWLGMIWGGGLSDYNSALKSRLSISKDNSKSQVFLKMNSLQTDDTAMYYCARNGNFYAMDYWGQGTSVTVSS VL: QIVLTQSPAIMSASLGERVTMTCTASSSVSSSFLHWYQQKPGSSPQLWIYSTSNLASGVPARFSGSGSGTSYSLTISSMEAEDAATYYCHQYHHSPYIYTFGGGTKLEIK | 0.71 | 0.807
KB001 mouse Fab VH Y59R (Fab, V domains shown) VH: EVQLKQSGPGLVAPSQSLSITCTVSGFSLSIYSVHWVRQPPGKGLEWLGMIWGGGSSDRNSALKSRLSISKDNSKSQVFLKMNSLQTDDTAMYYCARNGNFYAMDYWGQGTSVTVSS VL: QIVLTQSPAIMSASLGERVTMTCTASSSVSSSFLHWYQQKPGSSPQLWIYSTSNLASGVPARFSGSGSGTSYSLTISSMEAEDAATYYCHQYHHSPYIYTFGGGTKLEIK | 0.633 | 0.8
KB001 mouse Fab VH S56N (Fab, V domains shown) VH: EVQLKQSGPGLVAPSQSLSITCTVSGFSLSIYSVHWVRQPPGKGLEWLGMIWGGGNSDYNSALKSRLSISKDNSKSQVFLKMNSLQTDDTAMYYCARNGNFYAMDYWGQGTSVTVSS VL: QIVLTQSPAIMSASLGERVTMTCTASSSVSSSFLHWYQQKPGSSPQLWIYSTSNLASGVPARFSGSGSGTSYSLTISSMEAEDAATYYCHQYHHSPYIYTFGGGTKLEIK | 0.759 and 0.743 | 0.863 and 0.845
KB001 mouse Fab VH N60T (Fab, V domains shown) VH: EVQLKQSGPGLVAPSQSLSITCTVSGFSLSIYSVHWVRQPPGKGLEWLGMIWGGGSSDYTSALKSRLSISKDNSKSQVFLKMNSLQTDDTAMYYCARNGNFYAMDYWGQGTSVTVSS VL: QIVLTQSPAIMSASLGERVTMTCTASSSVSSSFLHWYQQKPGSSPQLWIYSTSNLASGVPARFSGSGSGTSYSLTISSMEAEDAATYYCHQYHHSPYIYTFGGGTKLEIK | 0.406 | 0.823
KB001 mouse Fab VH Y59K (Fab, V domains shown) VH: EVQLKQSGPGLVAPSQSLSITCTVSGFSLSIYSVHWVRQPPGKGLEWLGMIWGGGSSDKNSALKSRLSISKDNSKSQVFLKMNSLQTDDTAMYYCARNGNFYAMDYWGQGTSVTVSS VL: QIVLTQSPAIMSASLGERVTMTCTASSSVSSSFLHWYQQKPGSSPQLWIYSTSNLASGVPARFSGSGSGTSYSLTISSMEAEDAATYYCHQYHHSPYIYTFGGGTKLEIK | 0.648 | 0.819
KB001 mouse Fab VH S57T (Fab, V domains shown) VH: EVQLKQSGPGLVAPSQSLSITCTVSGFSLSIYSVHWVRQPPGKGLEWLGMIWGGGSTDYNSALKSRLSISKDNSKSQVFLKMNSLQTDDTAMYYCARNGNFYAMDYWGQGTSVTVSS VL: QIVLTQSPAIMSASLGERVTMTCTASSSVSSSFLHWYQQKPGSSPQLWIYSTSNLASGVPARFSGSGSGTSYSLTISSMEAEDAATYYCHQYHHSPYIYTFGGGTKLEIK | 0.843 and 0.849 | 0.958 and 0.965
KB001 mouse Fab VH D58G (Fab, V domains shown) VH: EVQLKQSGPGLVAPSQSLSITCTVSGFSLSIYSVHWVRQPPGKGLEWLGMIWGGGSSGYNSALKSRLSISKDNSKSQVFLKMNSLQTDDTAMYYCARNGNFYAMDYWGQGTSVTVSS VL: QIVLTQSPAIMSASLGERVTMTCTASSSVSSSFLHWYQQKPGSSPQLWIYSTSNLASGVPARFSGSGSGTSYSLTISSMEAEDAATYYCHQYHHSPYIYTFGGGTKLEIK | 0.778 | 0.984
KB001 mouse Fab VH N60S (Fab, V domains shown) VH: EVQLKQSGPGLVAPSQSLSITCTVSGFSLSIYSVHWVRQPPGKGLEWLGMIWGGGSSDYSSALKSRLSISKDNSKSQVFLKMNSLQTDDTAMYYCARNGNFYAMDYWGQGTSVTVSS VL: QIVLTQSPAIMSASLGERVTMTCTASSSVSSSFLHWYQQKPGSSPQLWIYSTSNLASGVPARFSGSGSGTSYSLTISSMEAEDAATYYCHQYHHSPYIYTFGGGTKLEIK | 0.452 | 0.916
KB001 mouse Fab VH N60P (Fab, V domains shown) VH: EVQLKQSGPGLVAPSQSLSITCTVSGFSLSIYSVHWVRQPPGKGLEWLGMIWGGGSSDYPSALKSRLSISKDNSKSQVFLKMNSLQTDDTAMYYCARNGNFYAMDYWGQGTSVTVSS VL: QIVLTQSPAIMSASLGERVTMTCTASSSVSSSFLHWYQQKPGSSPQLWIYSTSNLASGVPARFSGSGSGTSYSLTISSMEAEDAATYYCHQYHHSPYIYTFGGGTKLEIK | 0.44 and 0.428 | 0.892 and 0.867
KB001 mouse Fab VH S56T (Fab, V domains shown) VH: EVQLKQSGPGLVAPSQSLSITCTVSGFSLSIYSVHWVRQPPGKGLEWLGMIWGGGTSDYNSALKSRLSISKDNSKSQVFLKMNSLQTDDTAMYYCARNGNFYAMDYWGQGTSVTVSS VL: QIVLTQSPAIMSASLGERVTMTCTASSSVSSSFLHWYQQKPGSSPQLWIYSTSNLASGVPARFSGSGSGTSYSLTISSMEAEDAATYYCHQYHHSPYIYTFGGGTKLEIK | 0.838 and 0.844 and 0.853 | 0.953 and 0.96 and 0.97
KB001 mouse Fab VH S56E (Fab, V domains shown) VH: EVQLKQSGPGLVAPSQSLSITCTVSGFSLSIYSVHWVRQPPGKGLEWLGMIWGGGESDYNSALKSRLSISKDNSKSQVFLKMNSLQTDDTAMYYCARNGNFYAMDYWGQGTSVTVSS VL: QIVLTQSPAIMSASLGERVTMTCTASSSVSSSFLHWYQQKPGSSPQLWIYSTSNLASGVPARFSGSGSGTSYSLTISSMEAEDAATYYCHQYHHSPYIYTFGGGTKLEIK | 0.772 and 0.713 | 0.878 and 0.811
KB001 mouse Fab VH S56M (Fab, V domains shown) VH: EVQLKQSGPGLVAPSQSLSITCTVSGFSLSIYSVHWVRQPPGKGLEWLGMIWGGGMSDYNSALKSRLSISKDNSKSQVFLKMNSLQTDDTAMYYCARNGNFYAMDYWGQGTSVTVSS VL: QIVLTQSPAIMSASLGERVTMTCTASSSVSSSFLHWYQQKPGSSPQLWIYSTSNLASGVPARFSGSGSGTSYSLTISSMEAEDAATYYCHQYHHSPYIYTFGGGTKLEIK | 0.809 | 0.92
KB001 mouse Fab VH D58S (Fab, V domains shown) VH: EVQLKQSGPGLVAPSQSLSITCTVSGFSLSIYSVHWVRQPPGKGLEWLGMIWGGGSSSYNSALKSRLSISKDNSKSQVFLKMNSLQTDDTAMYYCARNGNFYAMDYWGQGTSVTVSS VL: QIVLTQSPAIMSASLGERVTMTCTASSSVSSSFLHWYQQKPGSSPQLWIYSTSNLASGVPARFSGSGSGTSYSLTISSMEAEDAATYYCHQYHHSPYIYTFGGGTKLEIK | 0.646 | 0.817
KB001 mouse Fab VH S57M (Fab, V domains shown) VH: EVQLKQSGPGLVAPSQSLSITCTVSGFSLSIYSVHWVRQPPGKGLEWLGMIWGGGSMDYNSALKSRLSISKDNSKSQVFLKMNSLQTDDTAMYYCARNGNFYAMDYWGQGTSVTVSS VL: QIVLTQSPAIMSASLGERVTMTCTASSSVSSSFLHWYQQKPGSSPQLWIYSTSNLASGVPARFSGSGSGTSYSLTISSMEAEDAATYYCHQYHHSPYIYTFGGGTKLEIK | 0.748 | 0.85
KB001 mouse Fab VH Y59M/S57I (Fab, V domains shown) VH: EVQLKQSGPGLVAPSQSLSITCTVSGFSLSIYSVHWVRQPPGKGLEWLGMIWGGGSIDMNSALKSRLSISKDNSKSQVFLKMNSLQTDDTAMYYCARNGNFYAMDYWGQGTSVTVSS VL: QIVLTQSPAIMSASLGERVTMTCTASSSVSSSFLHWYQQKPGSSPQLWIYSTSNLASGVPARFSGSGSGTSYSLTISSMEAEDAATYYCHQYHHSPYIYTFGGGTKLEIK | 0.701 | 0.886
KB001 mouse Fab VH Y59T (Fab, V domains shown) VH: EVQLKQSGPGLVAPSQSLSITCTVSGFSLSIYSVHWVRQPPGKGLEWLGMIWGGGSSDTNSALKSRLSISKDNSKSQVFLKMNSLQTDDTAMYYCARNGNFYAMDYWGQGTSVTVSS VL: QIVLTQSPAIMSASLGERVTMTCTASSSVSSSFLHWYQQKPGSSPQLWIYSTSNLASGVPARFSGSGSGTSYSLTISSMEAEDAATYYCHQYHHSPYIYTFGGGTKLEIK | 0.744 | 0.941
KB001 mouse Fab VH Y59F (Fab, V domains shown) VH: EVQLKQSGPGLVAPSQSLSITCTVSGFSLSIYSVHWVRQPPGKGLEWLGMIWGGGSSDFNSALKSRLSISKDNSKSQVFLKMNSLQTDDTAMYYCARNGNFYAMDYWGQGTSVTVSS VL: QIVLTQSPAIMSASLGERVTMTCTASSSVSSSFLHWYQQKPGSSPQLWIYSTSNLASGVPARFSGSGSGTSYSLTISSMEAEDAATYYCHQYHHSPYIYTFGGGTKLEIK | 0.668 | 0.845
KB001 mouse Fab VH N60Q (Fab, V domains shown) VH: EVQLKQSGPGLVAPSQSLSITCTVSGFSLSIYSVHWVRQPPGKGLEWLGMIWGGGSSDYQSALKSRLSISKDNSKSQVFLKMNSLQTDDTAMYYCARNGNFYAMDYWGQGTSVTVSS VL: QIVLTQSPAIMSASLGERVTMTCTASSSVSSSFLHWYQQKPGSSPQLWIYSTSNLASGVPARFSGSGSGTSYSLTISSMEAEDAATYYCHQYHHSPYIYTFGGGTKLEIK | 0.447 and 0.402 | 0.906 and 0.815
